Reference: patent US20240343781A1 (TRUSTEES OF COLUMBIA UNIVERSITY IN THE CITY OF NEW YORK, published 2024)

Biological target: SARS-COV spike on pseudovirus (SARS-CoV, UniProt P59594 14-1255)
Experiment: cell-based or functional assay

| Binder | IC50, neutralization of pseudoviruses |
| --- | --- |
| engineered monoclonal antibody 11-11 (antibody, V domains shown) VH: QVQLQESGPGLVKPSQTLSLTCTVSGGSISSGGYYWSWIRQHPGKGLEWIGYIYYSGSTYYNPSLKSRVTISVDTSKNQFSLKVSSVTAADTAVYYCASSNYYDGSGYNLLESYGMDVWGQGTSVTVSS VL: QSVLTQPPSVSGAPGQRVTISCTGSSSNIGAGYDVHWYQQLPGTAPKLLIYGNSNRPSGVPDRFSGSRSGTSASLAITGLQAEDEADYYCQSYDSSLSGSWVFGGGTKVTVL | 0.025 µg/mL |
| engineered monoclonal antibody 10-40 (antibody, V domains shown) VH: QLQLQESGPGLVKPSETLSLTCTVSGGSISSSNFYWGWIRQPPGKGLEWIASITYSGRTFYNPSLKSRVAISVDTSKNQFSLKLSSVTAADTAVYYCARTFPSYYDRSGYHYLNYGMDVWGQGTTVTVSS VL: NFMLTQPHSMSESPGKTVTISCTRSSGSIASNYVQWYQQRPGSSPTTVIYEDNQRPSGVPDRFSGSIDSSSNSASLTISGLKTEDEADYYCQSYDSSSWVFGGGTKLTVL | 0.019 µg/mL |
